According to patent publication US20200362026A1 (INSTITUTE FOR RESEARCH IN BIOMEDICINE, published 2020):

T1: FcγRIIa (UniProt P12318 34-317, limits assumed)
T1 construct: whole, on cells; also called FcgRIIa; Fcγ receptor IIa
T1 sequence (looked up): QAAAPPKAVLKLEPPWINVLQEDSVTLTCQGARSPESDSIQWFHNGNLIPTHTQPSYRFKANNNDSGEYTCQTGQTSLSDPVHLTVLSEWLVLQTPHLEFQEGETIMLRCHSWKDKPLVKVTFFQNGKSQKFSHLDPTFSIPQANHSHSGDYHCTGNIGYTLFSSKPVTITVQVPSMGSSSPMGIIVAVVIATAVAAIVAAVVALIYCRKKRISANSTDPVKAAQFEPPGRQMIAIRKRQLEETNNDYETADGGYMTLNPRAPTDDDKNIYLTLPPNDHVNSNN

T2: FcγRIIb (UniProt P31994 43-310, limits assumed)
T2 construct: whole, on cells; also called FcgRIIb; Fcγ receptor IIb
T2 sequence (looked up): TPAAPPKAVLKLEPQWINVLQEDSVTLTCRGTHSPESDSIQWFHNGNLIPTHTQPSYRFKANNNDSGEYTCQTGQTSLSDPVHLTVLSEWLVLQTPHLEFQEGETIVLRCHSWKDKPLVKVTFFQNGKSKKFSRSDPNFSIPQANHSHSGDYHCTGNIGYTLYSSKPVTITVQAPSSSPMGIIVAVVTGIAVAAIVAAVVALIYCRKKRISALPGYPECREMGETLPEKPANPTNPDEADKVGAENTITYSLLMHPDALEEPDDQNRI


Experiments:
[1] = target: T3, human GM-CSF (granulocyte macrophage-colony stimulating factor) (human, UniProt P04141 18-144); assay: ELISA on GM-CSF
T3 construct: Soluble cytokine used in ELISA, SPR, TF-1 bioassay and immune complex formation; also called recombinant GM-CSF
T3 sequence (P04141 18-144 limits assumed): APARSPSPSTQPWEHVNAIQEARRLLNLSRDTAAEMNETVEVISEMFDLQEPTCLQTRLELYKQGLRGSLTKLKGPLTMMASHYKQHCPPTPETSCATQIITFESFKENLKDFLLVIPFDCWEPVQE

[2] = target: T3, human GM-CSF (granulocyte …); assay: cell-based or functional assay
FcγRIIa [3] = target: T1, FcγRIIa; assay: flow cytometry, TZM-bl cells expressing FcγRIIa, mAb alone (w/o GM-CSF)
Protocol: (§1) Expression of specific FcγRs was assessed by staining TZM-b1 cells with FITC-conjugated anti-CD64 (anti-FcγRI), anti-CD32 (anti-FcγRIIa and anti-FcγRIIb) and anti-CD16 (anti-FcγRIIIa) antibodies (all from BD Pharmingen). Untrasfected and transfected TZM-b1 cells were washed with staining buffer (PBS with 10% Fetal Bovine Serum and 2 mM EDTA) and seeded in 96-well-plates at a density of 50,000 cells per well. […] The LALA versions of all antibodies and a mAb with a different specificity were included as controls. Samples were incubated at 37° C. for 30 min to allow the formation of immune complexes and then cooled down to 4° C. before adding them to TZM-b1 cells for 30 min. Cells were washed twice and stained with anti-human IgG Fcγ fragment specific F(ab′)2 fragment (Jackson ImmunoResearch). Samples were analyzed on BD FACSCanto (BD Biosciences) and median intensity fluorescence was analyzed and compared between samples.
(§2) To address the engagement of Fcγ receptors, immune complexes formed between GM-CSF and multispecific antibodies were tested for their capacity to bind to TZM-b1 cells expressing FcγRIIa and FcγRIIb receptors. Multispecific antibodies were mixed with 0.05 μg/ml of GM-CSF, or staining buffer. Samples were incubated at 37° C. for 30 min to allow the formation of immune complexes and then cooled down to 4° C. before adding them to TZM-b1 cells for 30 minutes. Cells were washed twice and stained with anti-human IgG Fcγ fragment specific F(ab′)2 fragment. Samples were analyzed on BD FACSCanto (BD Biosciences) and median intensity fluorescence was analyzed and compared between samples.

FcγRIIb [4] = target: T2, FcγRIIb; assay: flow cytometry, TZM-bl cells expressing FcγRIIb, mAb alone (w/o GM-CSF)
Protocol: as §1, §2

FcγRIIa [5] = target: T1, FcγRIIa; assay: flow cytometry, TZM-bl cells expressing FcγRIIa, immune complex with low GM-CSF
Protocol: as §1, §2

FcγRIIb [6] = target: T2, FcγRIIb; assay: flow cytometry, TZM-bl cells expressing FcγRIIb, immune complex with low GM-CSF
Protocol: as §1, §2

FcγRIIa [7] = target: T1, FcγRIIa; assay: flow cytometry, TZM-bl cells expressing FcγRIIa, immune complex with high GM-CSF
Protocol: as §2

FcγRIIb [8] = target: T2, FcγRIIb; assay: flow cytometry, TZM-bl cells expressing FcγRIIb, immune complex with high GM-CSF
Protocol: as §1, §2

FcγRIIa [9] = target: T1, FcγRIIa; assay: flow cytometry, TZM-bl FcγRIIa cells; average ratio of binding in presence and in absence of GM-CSF
Protocol: as §2

FcγRIIb [10] = target: T2, FcγRIIb; assay: flow cytometry, TZM-bl FcγRIIb cells; average ratio of binding in presence and in absence of GM-CSF
Protocol: as §1, §2

Row | Binder | EC50 [1] | IC90 less stringent conditions (50 pg/ml GM-CSF, 1,000 TF-1/well) [2] | IC90 more stringent conditions (500 pg/ml GM-CSF, 1,000 TF-1/well) [2] | IC90 stringent conditions (50 pg/ml GM-CSF, 10,000 TF-1/well) [2] | IC90 very stringent conditions (500 pg/ml GM-CSF, 10,000 TF-1/well) [2] | MFI (FcγRIIa [3]) | MFI (FcγRIIb [4]) | MFI (FcγRIIa [5]) | MFI (FcγRIIb [6]) | MFI (FcγRIIa [7]) | MFI (FcγRIIb [8]) | Average RATIO FcgRIIa (FcγRIIa [9]) | Average RATIO FcgRIIb (FcγRIIb [10])
1 | Bs3GC2b bispecific antibody (bispecific antibody, human IgG1, lambda, Bispecific tetravalent IgG1, construct type Bs3; specificities GCE536 + GCB59) heavy: not shown light: SYVLTQPPSVSVAPGQTASLTCGGTNIGSKSVHWYQQKAGQAPVLVVYADNDRPSGVPERFSGSNSGNTATLTISRVEAEDESDYFCQVWDGNTDHVVFGGGTKLTVLGQPKAAPSVTLFPPSSEELQANKATLVCLISDFYPGAVTVAWKADSSPVKAGVETTTPSKQSNNKYAASSYLSLTPEQWKSHRSYSCQVTHEGSTVEKTVAPTECS | 48.6 ng/mL | 0.559 ng/mL | 6.21 ng/mL | 1.07 ng/mL | 11.2 ng/mL | 6910 MFI | 96700 MFI | 7130 MFI | 181000 MFI | 269000 MFI | 1.3e+06 MFI | 20 ratio | 7.67 ratio
2 | Bs3GC3b bispecific antibody (bispecific antibody, human IgG1, lambda, Bispecific tetravalent IgG1, construct type Bs3; specificities GCA7 + GCB59) heavy: not shown light: SYVLTQPPSVSVAPGQTASLTCGGTNIGSKSVHWYQQKAGQAPVLVVYADNDRPSGVPERFSGSNSGNTATLTISRVEAEDESDYFCQVWDGNTDHVVFGGGTKLTVLGQPKAAPSVTLFPPSSEELQANKATLVCLISDFYPGAVTVAWKADSSPVKAGVETTTPSKQSNNKYAASSYLSLTPEQWKSHRSYSCQVTHEGSTVEKTVAPTECS | 587 ng/mL | 1.28 ng/mL | 17.8 ng/mL | 2.96 ng/mL | 124 ng/mL | 650 MFI | 2630 MFI | 8290 MFI | 57800 MFI | 55000 MFI | 433000 MFI | 48.7 ratio | 93.3 ratio
3 | Ts1GC2a trispecific antibody (antibody, human IgG1, kappa, Trispecific hexavalent IgG1, construct type Ts1; specificities GCE536 + GCA7 + GCB59) heavy: not shown light: EIVLTQSPGTLSLSPGETAILSCRASQSVSSSLLAWYQQKPGQAPRLLIYGASNRATGIRGRFSGSGSGTDFTLTISRLEPEDFVLYYCQHYGSRVTFGQGTKLEIKRTVAAPSVFIFPPSDEQLKSGTASVVCLLNNFYPREAKVQWKVDNALQSGNSQESVTEQDSKDSTYSLSSTLTLSKADYEKHKVYACEVTHQGLSSPVTKSFNRGEC | 33.5 ng/mL | 0.265 ng/mL | 3.17 ng/mL | 0.281 ng/mL | 2.53 ng/mL | 2850 MFI | 67200 MFI | 4130 MFI | 136000 MFI | 9870 MFI | 397000 MFI | 2.46 ratio | 3.96 ratio
4 | Ts3GC2d trispecific antibody (antibody, human IgG1, kappa, Trispecific hexavalent IgG1, construct type Ts3; specificities GCE536 + GCA7 + GCB59; also called TsGC2d; TsgC2d) heavy: not shown light: EIVLTQSPGTLSLSPGETAILSCRASQSVSSSLLAWYQQKPGQAPRLLIYGASNRATGIRGRFSGSGSGTDFTLTISRLEPEDFVLYYCQHYGSRVTFGQGTKLEIKRTVAAPSVFIFPPSDEQLKSGTASVVCLLNNFYPREAKVQWKVDNALQSGNSQESVTEQDSKDSTYSLSSTLTLSKADYEKHKVYACEVTHQGLSSPVTKSFNRGEC | 29.6 ng/mL | 0.536 ng/mL | 0.795 ng/mL | 0.413 ng/mL | 0.768 ng/mL | 1310 MFI | 29000 MFI | 7900 MFI | 344000 MFI | 122000 MFI | 652000 MFI | 49.5 ratio | 17.2 ratio
5 | Bs3GC1a bispecific antibody (bispecific antibody, human IgG1, kappa, Bispecific tetravalent IgG1, construct type Bs3; specificities GCE536 + GCA7) heavy: not shown light: EIVLTQSPGTLSLSPGETAILSCRASQSVSSSLLAWYQQKPGQAPRLLIYGASNRATGIRGRFSGSGSGTDFTLTISRLEPEDFVLYYCQHYGSRVTFGQGTKLEIKRTVAAPSVFIFPPSDEQLKSGTASVVCLLNNFYPREAKVQWKVDNALQSGNSQESVTEQDSKDSTYSLSSTLTLSKADYEKHKVYACEVTHQGLSSPVTKSFNRGEC | 74.3 ng/mL | 0.681 ng/mL | 4.72 ng/mL | 0.963 ng/mL | 6.24 ng/mL | 687 MFI | 20600 MFI | 1270 MFI | 175000 MFI | 65300 MFI | 510000 MFI | 48.4 ratio | 16.6 ratio
6 | Bs1GC2a bispecific antibody (bispecific antibody, human IgG1, kappa, Bispecific tetravalent IgG1, construct type Bs1; specificities GCE536 + GCB59) heavy: not shown light: EIVLTQSPGTLSLSPGETAILSCRASQSVSSSLLAWYQQKPGQAPRLLIYGASNRATGIRGRFSGSGSGTDFTLTISRLEPEDFVLYYCQHYGSRVTFGQGTKLEIKRTVAAPSVFIFPPSDEQLKSGTASVVCLLNNFYPREAKVQWKVDNALQSGNSQESVTEQDSKDSTYSLSSTLTLSKADYEKHKVYACEVTHQGLSSPVTKSFNRGEC | 16.2 ng/mL | 2.77 ng/mL | 9.92 ng/mL | 31.4 ng/mL | 217 ng/mL | 662 MFI | 11800 MFI | 9140 MFI | 398000 MFI | 566000 MFI | 1.44e+06 MFI | 435 ratio | 77.8 ratio
